Assay results published in article PMC6902002, “Recognition and processing of branched DNA substrates by Slx1–Slx4 nuclease”.

Biological target: T1, Tt-Slx1 E79Q-Slx4CCD3 (Thielavia terrestris, UniProt G2QV68;G2RCY5 1-324;834-936, E79Q)
T1 sequence 1: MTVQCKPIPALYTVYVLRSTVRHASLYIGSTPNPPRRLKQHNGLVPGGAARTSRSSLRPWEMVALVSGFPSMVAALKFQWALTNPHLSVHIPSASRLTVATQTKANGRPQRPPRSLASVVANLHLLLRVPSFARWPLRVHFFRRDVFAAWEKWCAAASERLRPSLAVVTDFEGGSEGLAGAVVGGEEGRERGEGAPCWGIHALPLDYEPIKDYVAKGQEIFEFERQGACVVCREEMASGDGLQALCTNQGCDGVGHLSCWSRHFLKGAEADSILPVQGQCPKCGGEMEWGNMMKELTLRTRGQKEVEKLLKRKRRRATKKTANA
T1 sequence 2: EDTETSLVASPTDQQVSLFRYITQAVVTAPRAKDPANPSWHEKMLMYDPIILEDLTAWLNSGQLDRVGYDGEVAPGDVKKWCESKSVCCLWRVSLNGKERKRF
Assay: X-ray crystallography; Zn2+ in RING domain; 0.2 M CaCl2, 5 mM EDTA, pH 6.0; 2.7 A; Fluorescence anisotropy: 20 mM HEPES pH 7.5, 2.5 mM CaCl2, 100 mM NaCl, 0.1 mg/ml BSA, 25 C; 25 nM DNA, 0-500 nM protein
Settings: protein: recombinant; tags: N-terminal 6xHis on Slx1; Slx4CCD3 untagged; chain copies: 2;2; self-annealed splayed arm; single G-A mismatch and unpaired bases in crystal

B1: self-annealing splayed-arm crystallization DNA (structured_DNA)
DNA: CAATCGGCAATGACCTTTGGTCATTCGGCAGAT
- binding result: binds
